Article PMC5081176

B1: pol ι (Homo sapiens) (protein)
chain: MEKLGVEPEEEGGGDDDEEDAEAWAMELADVGAAASSQGVHDQVLPTPNASSRVIVHVDLDCFYAQVEMISNPELKDKPLGVQQKYLVVTCNYEARKLGVKKLMNVRDAKEKCPQLVLVNGEDLTRYREMSYKVTELLEEFSPVVERLGFDENFVDLTEMVEKRLQQLQSDELSAVTVSGHVYNNQSINLLDVLHIRLLVGSQIAAEMREAMYNQLGLTGCAGVASNKLLAKLVSGVFKPNQQTVLLPESCQHLIHSLNHIKEIPGIGYKTAKCLEALGINSVRDLQTFSPKILEKELGISVAQRIQKLSFGEDNSPVILSGPPQSFSEEDSFKKCSSEVEAKNKIEELLASLLNRVCQDGRKPHTVRLIIRRYSSEKHYGRESRQCPIPSHVIQKLGTGNYDVMTPMVDILMKLFRNMVNVKMPFHLTLLSVCFCNLKALNTAKKGLIDYYLMPSLSTTSRSGKHSFKMKDTHMEDFPKDKETNRDFLPSGRIESTRTRESPLDTTNFSKEKDINEFPLCSLPEGVDQEVFKQLPVDIQEEILSGKSREKFQGKGSVSCPLHASRGVLSFFSKKQMQDIPINPRDHLSSSKQVSSVSPCEPGTSGFNSSSSSYMSSQKDYSYYLDNRLKDERISQGPKEPQGFHFTNSNPAVSAFHSFPNLQSEQLFSRNHTTDSHKQTVATDSHEGLTENREPDSVDEKITFPSDIDPQVFYELPEAVQKELLAEWKRAGSDFHIGHK
B2: pol κ (Homo sapiens) (protein)
chain: MDSTKEKCDSYKDDLLLRMGLNDNKAGMEGLDKEKINKIIMEATKGSRFYGNELKKEKQVNQRIENMMQQKAQITSQQLRKAQLQVDRFAMELEQSRNLSNTIVHIDMDAFYAAVEMRDNPELKDKPIAVGSMSMLSTSNYHARRFGVRAAMPGFIAKRLCPQLIIVPPNFDKYRAVSKEVKEILADYDPNFMAMSLDEAYLNITKHLEERQNWPEDKRRYFIKMGSSVENDNPGKEVNKLSEHERSISPLLFEESPSDVQPPGDPFQVNFEEQNNPQILQNSVVFGTSAQEVVKEIRFRIEQKTTLTASAGIAPNTMLAKVCSDKNKPNGQYQILPNRQAVMDFIKDLPIRKVSGIGKVTEKMLKALGIITCTELYQQRALLSLLFSETSWHYFLHISLGLGSTHLTRDGERKSMSVERTFSEINKAEEQYSLCQELCSELAQDLQKERLKGRTVTIKLKNVNFEVKTRASTVSSVVSTAEEIFAIAKELLKTEIDADFPHPLRLRLMGVRISSFPNEEDRKHQQRSIIGFLQAGNQALSATECTLEKTDKDKFVKPLEMSHKKSFFDKKRSERKWSHQDTFKCEAVNKQSFQTSQPFQVLKKKMNENLEISENSDDCQILTCPVCFRAQGCISLEALNKHVDECLDGPSISENFKMFSCSHVSATKVNKKENVPASSLCEKQDYEAHPKIKEISSVDCIALVDTIDNSSKAESIDALSNKHSKEECSSLPSKSFNIEHCHQNSSSTVSLENEDVGSFRQEYRQPYLCEVKTGQALVCPVCNVEQKTSDLTLFNVHVDVCLNKSFIQELRKDKFNPVNQPKESSRSTGSSSGVQKAVTRTKRPGLMTKYSTSKKIKPNNPKHTLDIFFK
B3: pol η (Homo sapiens) (protein)
chain: MATGQDRVVALVDMDCFFVQVEQRQNPHLRNKPCAVVQYKSWKGGGIIAVSYEARAFGVTRSMWADDAKKLCPDLLLAQVRESRGKANLTKYREASVEVMEIMSRFAVIERASIDEAYVDLTSAVQERLQKLQGQPISADLLPSTYIEGLPQGPTTAEETVQKEGMRKQGLFQWLDSLQIDNLTSPDLQLTVGAVIVEEMRAAIERETGFQCSAGISHNKVLAKLACGLNKPNRQTLVSHGSVPQLFSQMPIRKIRSLGGKLGASVIEILGIEYMGELTQFTESQLQSHFGEKNGSWLYAMCRGIEHDPVKPRQLPKTIGCSKNFPGKTALATREQVQWWLLQLAQELEERLTKDRNDNDRVATQLVVSIRVQGDKRLSSLRRCCALTRYDAHKMSHDAFTVIKNCNTSGIQTEWSPPLTMLFLCATKFSASAPSSSTDITSFLSSDPSSLPKVPVTSSEAKTQGSGPAVTATKKATTSLESFFQKAAERQKVKEASLSSLTAPTQAPMSNSPSKPSLPFQTSQSTGTEPFFKQKSLLLKQKQLNNSSVSSPQQNPWSNCKALPNSLPTEYPGCVPVCEGVSKLEESSKATPAEMDLAHNSQSMHASSASKSVLEVTQKATPNPSLLAAEDQVPCEKCGSLVPVWDMPEHMDYHFALELQKSFLQPHSSNPQVVSAVSHQGKRNPKSPLACTNKRPRPEGMQTLESFFKPLTH

Tests used:
Assay in all cases: purified protein
Type in all cases: biochemical, Homo sapiens
purified protein [1] = substrate: Nc1ccn([C@H]2C[C@H](O)[C@@H](COP(=O)(O)OP(=O)(O)OP(=O)(O)O)O2)c(=O)n1; conditions: opposite O2-Me-dT template, Mg2+, pH 8.0, 37 °C
purified protein [2] = substrate: Nc1nc2c(ncn2[C@H]2C[C@H](O)[C@@H](COP(=O)(O)OP(=O)(O)OP(=O)(O)O)O2)c(=O)[nH]1; conditions: opposite O2-Me-dT template, Mg2+, pH 8.0, 37 °C
purified protein [3] = substrate: Nc1ncnc2c1ncn2[C@H]1C[C@H](O)[C@@H](COP(=O)(O)OP(=O)(O)OP(=O)(O)O)O1; conditions: opposite undamaged template dT (P15/T24), Mg2+, pH 8.0, 37 °C

Row | Protein | Km (purified protein [1]) [µM] | kcat (purified protein [1]) [s⁻¹] | kcat/Km (purified protein [1]) [M⁻¹ s⁻¹] | Km (purified protein [2]) [µM] | kcat (purified protein [2]) [s⁻¹] | kcat/Km (purified protein [2]) [M⁻¹ s⁻¹] | Km (purified protein [3]) [µM] | kcat (purified protein [3]) [s⁻¹] | kcat/Km (purified protein [3]) [M⁻¹ s⁻¹]
1 | B1 | 93 ± 14 | 0.00102 ± 6.67e-05 | 10.8 ± 1 | 46 ± 2 | 0.0019 ± 3.33e-05 | 41.7 ± 1.67 | 2.6 ± 0.4 | 0.133 ± 0.01 | 51200 ± 4500
2 | B2 | 160 ± 30 | 0.00112 ± 0.0001 | 6.83 | 64 ± 12 | 0.000917 ± 6.67e-05 | 14.3 | 1.4 ± 0.1 | – | 53300
3 | B3 | 130.2 ± 11.4 | 0.00113 ± 5e-05 | 8.67 ± 0.333 | 38.4 ± 1.8 | 0.00065 ± 1.67e-05 | 17.5 ± 0.667 | 5.3 ± 0.3 | 0.817 ± 0.0333 | 154000 ± 3830
